# Measurements published in patent US8834890B2, “Siderophore conjugate immunogenic compositions and vaccines” (University of Florida Research Foundation, Inc., priority 2009, dated 2014).
# B1: OVA: unconjugated ovalbumin, control in the competitive binding ELISA (protein, UniProt P01012 2-386, looked up)
# Ovalbumin: GSIGAASMEFCFDVFKELKVHHANENIFYCPIAIMSALAMVYLGAKDSTRTQINKVVRFDKLPGFGDSIEAQCGTSVNVHSSLRDILNQITKPNDVYSFSLASRLYAEERYPILPEYLQCVKELYRGGLEPINFQTAADQARELINSWVESQTNGIIRNVLQPSSVDSQTAMVLVNAIVFKGLWEKAFKDEDTQAMPFRVTEQESKPVQMMYQIGLFRVASMASEKMKILELPFASGTMSMLVLLPDEVSGLEQLESIINFEKLTEWTSSNVMEERKIKVYLPRMKMEEKYNLTSVLMAMGITDVFSSSANLSGISSAESLKISQAVHAAHAEINEAGREVVGSAEAGVDAASVSEEFRADHPFLFCIKHIATNAVLFFGRCVSP
# Assays:
# [1] = Iron clearance in non-iron-overloaded, bile-duct cannulated rats; type: in vivo, Sprague-Dawley rats; settings: 75 μmol/kg s.c.
# Procedure: To support this idea, bile duct-cannulated rats were given vibriobactin (3) subcutaneously (s.c.) at a dose of 75 μmol/kg. The rodents' bile and urine were collected for 48 h to determine if vibriobactin sequestered and promoted the excretion of iron. The iron content of the bile and urine were determined using atomic absorption spectroscopy. This model has been used for many years to evaluate the efficiency with which iron chelators promote the excretion of iron from animals [Bergeron, R. J.; Streiff, R. R.; Creary, E. A.; Daniels, R. D., Jr.; King, W.; Luchetta, G.; Wiegand, J.; Moerker, T.; Peter, H. H. A Comparative Study of the Iron-Clearing Properties of Desferrithiocin Analogues with Desferrioxamine B in a Cebus Monkey Model. Blood 1993, 81, 2166-2173 and Bergeron, R. J.; Streiff, R. R.; Wiegand, J.; Vinson, J. R. T.; Luchetta, G.; Evans, K. M.; Peter, H.; Jenny, H.-B. A Comparative Evaluation of Iron Clearance Models. […]
# Four rats were subjected to bile duct-cannulation as previously described. […] The iron content of the bile and urine were assessed by atomic absorption spectroscopy. Iron clearing efficiency was calculated as set forth elsewhere [Bergeron, R. J.; Wiegand, J.; McManis, J. S.; McCosar, B. H.; Weimar, W. R.; Brittenham, G. M.; Smith, R. E. Effects of C-4 Stereochemistry and C-4′ Hydroxylation on the Iron Clearing Efficiency and Toxicity of Desferrithiocin Analogues. […]
# [2] = tested on: BSA-VIB antigen; experiment: Competitive binding ELISA of purified monoclonal antibodies
# Chain of BSA-VIB antigen (P02769 25-607): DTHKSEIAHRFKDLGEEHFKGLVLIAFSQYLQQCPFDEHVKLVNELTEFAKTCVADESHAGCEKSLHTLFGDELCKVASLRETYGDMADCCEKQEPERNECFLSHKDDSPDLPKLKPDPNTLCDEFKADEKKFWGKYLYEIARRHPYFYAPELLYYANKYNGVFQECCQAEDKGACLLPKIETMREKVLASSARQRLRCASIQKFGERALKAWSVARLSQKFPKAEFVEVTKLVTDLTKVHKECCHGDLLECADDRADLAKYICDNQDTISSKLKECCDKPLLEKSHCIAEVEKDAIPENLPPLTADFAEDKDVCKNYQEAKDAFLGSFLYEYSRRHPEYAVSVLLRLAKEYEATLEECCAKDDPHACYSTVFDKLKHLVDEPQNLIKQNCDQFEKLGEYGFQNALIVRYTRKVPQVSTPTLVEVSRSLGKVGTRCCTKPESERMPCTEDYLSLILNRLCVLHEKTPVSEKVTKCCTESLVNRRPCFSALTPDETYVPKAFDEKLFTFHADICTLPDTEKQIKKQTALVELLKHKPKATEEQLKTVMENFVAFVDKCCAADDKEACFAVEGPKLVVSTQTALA
# Procedure: Competitive binding ELISA studies using the purified mAb were conducted. The mAb were first incubated with varying concentrations of the OVA-VIB antigen, from 0-250 μg/mL, prior to being transferred to an ELISA plate that had been coated with the BSA-VIB antigen.
# In brief, the polypropylene incubation plate was blocked with 300 μL of blocking buffer (1% BSA in PBS with 0.02% azide) and was allowed to incubate overnight at 4° C. The following day, the blocking buffer was removed (flicked) from the plate, and the plate was blotted on a paper towel. A 96-well ELISA plate was coated with the BSA-VIB antigen (10 μg/mL, 50 μL/well) that had been diluted in PBS with 0.02% azide. After incubating overnight at 4° C., the plate was washed 4 times (300 μL/wash) as described above, blocked with 300 μL of blocking buffer for 1 h, and washed again. […]
# [3] = tested on: BSA-VIB antigen; experiment: Competitive binding ELISA of polyclonal serum from immunized mice
# Procedure: In the competitive binding ELISA, sera from immunized mice or non-immunized mice were first incubated with potential antigens f-g, or with OVA-VIB, at antigen concentrations ranging from 0-250 μg/mL. If an antigen is an effective competitor, it will bind to the antibody during this initial incubation, leaving less antibody available to bind to a second antigen coated on the ELISA plate. This “competition” will be reflected in lower p-nitrophenol optical density values.
# Competitive binding ELISAs were performed on 1) serum from immunized mice that contained polyclonal antibodies, and 2) purified mAb derived from the cloning of 5A6-2D5 and 2F10-1A9. Medium was used as a negative control, while unconjugated OVA (10 μg/mL, 50 μL/well) served as a […] for the competitive binding ELISA of the polyclonal serum (Table 2) and purified mAb (Table 6). Two types of plates were utilized: a conical bottom polypropylene plate was used for the incubation of the antibody-antigen mixture, whereas a 96-well MAXISORP plate (a high protein-binding capacity polystyrene multi-well ELISA plate) was used for the ELISA.
# In brief, the polypropylene incubation plate was blocked with 300 μL of blocking buffer (1% BSA in PBS with 0.02% azide) and was allowed to incubate overnight at 4° C. The following day, the blocking buffer was removed (flicked) from the plate, and the plate was blotted on a paper towel. A 96-well ELISA plate was coated with the BSA-VIB antigen (10 μg/mL, 50 μL/well) that had been diluted in PBS with 0.02% azide. After incubating overnight at 4° C., the plate was washed 4 times (300 μL/wash) as described above, blocked with 300 μL of blocking buffer for 1 h, and washed again.
# The OVA-VIB antigen was diluted in blocking buffer in micro centrifuge tubes at antigen concentrations ranging from 0-250 μg/mL. The diluted antigens (50 μL/well) were transferred from the micro centrifuge tubes to the polypropylene incubation plate that had been blocked and washed. Fifty microliters of the diluted polyclonal mouse serum (1:10,000 dilution) or mAb (0.11 μg protein/mL) were added to the incubation plate wells containing the diluted OVA-VIB antigen. The polypropylene plate was then incubated on a rocking platform for 2 h at room temperature, allowing time for the antigen-antibody complexes to form.
# A portion of the antigen/antibody mixture (50 μL) was transferred from the polypropylene incubation plate to the BSA-VIB-coated ELISA plate that had been blocked and washed. The ELISA plate was incubated with gentle agitation for 1 h at room temperature and was washed 4 times with the EWB. […] The ELISA plate was allowed to incubate with gentle agitation for 1 h at room temperature and was read at 405 nm, tracking the OD of the yellow water-soluble product, p-nitrophenol. […]
# [4] = against the BSA-VIB antigen, 10 μg/mL
Molecule,iron sequestration in vivo (in words) [1],iron clearing efficiency ([1]; bile and urine collected 48 h) [%],"optical density of mAb incubated with OVA greater than mAb first incubated with OVA-VIB at the same concentration [2, 4]","effectiveness as competitor (in words) ([2]; purified mAb, antigen 0-250 μg/mL)","BSA-VIB Antigen: Optical Density at 405 nm ([3]; M1 serum 1:10,000 incubated with unconjugated OVA 10 μg/mL)","BSA-VIB Antigen: Optical Density at 405 nm ([3]; M2 serum 1:10,000 incubated with unconjugated OVA 10 μg/mL)","optical density of serum incubated with OVA greater than serum first incubated with OVA-VIB at the same concentration [3, 4] [%]","effectiveness as competitor (in words) ([3]; sera from immunized mice, antigen 0-250 μg/mL)"
"CC1OC(c2cccc(O)c2O)=NC1C(=O)NCCCN(CCCNC(=O)c1cccc(O)c1O)C(=O)C1N=C(c2cccc(O)c2O)OC1C (centres unmarked) [Compound 3, vibriobactin]",found to sequester iron in vivo,4.3±1.1,–,–,–,–,–,–
B1,–,–,approximately 90%,not an effective competitor,1.152,1.655,92,not an effective competitor
